Assay results from the NTF2 design screens of Basanta et al. (2020).

Assay: protease stability score; higher = more stable; yeast display proteolysis, trypsin and chymotrypsin;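 note: log10 excess protease needed over predicted unfolded state with 0 meaning unfolded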
Sequence “DTENVKKATDYVHALNTGDEHRVKELMDPNARIRYGDKEVKGHDEIAKTLKTERDQSRVEFDIKRVEHQGNKVSIDLNFRKNQNGQPRSTKVNITVVFHNGKIKEINIQTDG” has a protease stability score of 1.59.
Work on “DTEQLKVFKEFVDAHRHNNPEELKKQMDKDVHFRVGNKQIHGREKAAHYWETIMHEIRVEWKSIVMKDSNGKAKAKFRFVENVNGKPQENTYDLEFSARNGRINSITMRFDEDQQRHHKK” yielded a protease stability score of 0.345.
In the case of “DTERNAKEAVTRLKKVFTHNDPDKIASMFDENAHIEVGDKRYHGHEEVKRWADDMRNQYDHWDADVRSIDVHGDKVHVEAVITAERNGKTLERTFVVIFDRDNGQLRIHELRDQ”, the protease stability score was 0.926.
“DTESAQTFVDVLEEGDFDTLVNLMDKNARLQVGDTTFNGRENARHFFELMKDKVDHLKIDHYEIHGNHVNIDMKLNVNGKTVDVVVYVKFHNGRIQHLRIEARDPEDMRTFKENMR” gave a protease stability score of 1.35.
“DTESLKKVEDVVNNNDKKKHERLLDKDVRIVVGDKEVRGREQAARDYKRFVNHADHIEIKRVRSNGDKLFIDRVVNFNGQTVHFVVTYVVKNGSIQEVSVKVTDKEHLKLYKEALR” showed a protease stability score of 0.196.
With “DTEVIHVLKRIMHAINEGDESQVRKNADPNVKVRVGNKSIHGREQLVEQMRRDVEEIRLEYKSFDAKDSDGHARARVKYQNEFNGKPQEKDDRATAVAHNGHLKSIRWRVPEDDLRDQDT” the protease stability score was -0.014.
For “DTEVQQRVEHYLRLREYNSPEHLIEMVDPNAKIEIGNKEFHGMENYAHTMRKRVEEWRLEIKHISVTIRNGRVVARIDQEVDIDGNPVRYTYKVVYDAHNGNIKHIKNDVDPRQQQQQHK”, the protease stability score was 0.176.
“DTHAVEVWRRVLRAKETGDEKTLEKNFDPNARFQVGDKTLHGMEQQVTENKRERDDLRVHVEIKEVKDQGDKAFVDMVMTAEVNGQPYRIRVEVVAVVRNGKIKELVINMDPRQQEQLDS” gave a protease stability score of 0.28.
“DTHDEKHVAQNVVDALRRNDPDQLRRMMDPNVHFEVGDKTIHGREDAARQLKEIKKNVDHFQVDDVTMSNGRVHAIIRVEINGQERRNVVQADVKNGHVKFQRIKDQ” showed a protease stability score of -0.084.
With “DTHDVKRILDELKTNDEDMNRHLVDPNAKLRIGDKEIHGREELTEFYHRFHKQVDSQRIKDVRVHGNRFRVEFEAVFNGQTVEASYEATFHNGKATSLRYTATSNEELKNLQKVMD” the protease stability score was 0.147.
With “DTHKLREHARSMVEAMEDGDPQHLAKLMDENAKVTVGDKDVHGEEQAKRWAREWQKRFDHVEVDDLKVDNGRIRVKFHAQVNGREIFVIVKVEVRNGRIRSLSLEVRDEHVEKRLQD” the protease stability score was 0.909.
For “DTHNFKKYMELLKALETGDERTARKMADPNAEFVIGDKEWHGMEEFAQTRVEQFKEQSIEIKILDYKDKNGQVHIRYRIRVNRNGKPDEKEVVVRIENHNGRIHHVEYRDTG”, the protease stability score was 0.09.
With “DTKERQNRAEEINKNFKEGNPHEYMSMLDKNASAQVGDKQVHGRERMSKRIEDIVRRADKLTIETFHVSGDKVEIVVQLIVNGTRVRMEVEIKFENGHAKHVEFNPEQDKQLKQ” the protease stability score was 0.421.
For “DTQALKHARSVLEDNDWDKLQKLADKDARATVGDTTYHGREDIQTWLKRAEETVDHVNIKSISIDEDSISVRFVMNVNGKTVEMVITIQLHNGRIKFLRIQARSEEQEKTIHEVVD”, the protease stability score was -0.051.
For “DTQEKLKHWWKHVQENIKTGDEDRLHEMVDPNASVQVGDKELHGREKIATTYVELMSRVDHVRIQITELEVHGNDFDLTFNYEADVNGRKEHDHYRVVLQEHNGQLRLVQMSEG”, the protease stability score was 0.747.
Work on “DTQKIVDDIAHEVVEVLKTGDPRKVVKLVDENARLQVGDKIVRGREDVKKRAEKENSRVDHREARVQEVTMHNGDVTIRFRVKDTHNGRSDSREYTIHLQEHDGKVFIQNMEDR” yielded a protease stability score of -0.261.
In the case of “DTRANEIWQDIVQALQTGDHERAIRLADPNVHFKVGDREVHGMTQFAHKQAQRHREARIELRVHSVRDRGDHVTVHYEMVVNVDGNPVKNTVTIYIVMRNGKLRSVEVSVDPRDVKRMRS”, the protease stability score was 0.108.
“DTRARDIARRFWEAIRKNDPDKIKNQADENADFKVGDKTIHGMDHIIHHWEKVNKHARFQWERMEIKDSPNHVDVKYQFIVDVDGEPKTINATAQFQFHNGRIKNYEIQVDPEQFKEITK” gave a protease stability score of 0.523.
For “DTRAREVLEKFLKALNKGDPDKMKRQADPNAKFHIGDKQVHGMDQMKEQIRTNQRHMKIDVQVQEVQVRNGRVVARMEVRQTHNGQPTSDILVVEAEVKNGRIKSAHWEKSS”, the protease stability score was -0.414.
With “DTRDDERFKEFLKQIETNDPDKLVRMFDPNARIKVGDNELRGREQIHTFWKHVLDEQRVEYTDVKADFNGDKIEVDIRMVNQTNGEPEESRNKVEVKWHNGRLIDVIFRSDG” the protease stability score was 0.113.
“DTRKVQEMAKQFVQAMKDNDRTTLEKLADEDARIRVGEKELHGRDQVATMVAHMAKNIDHIRVKKLSVDENHVNLVFEVEHNGRRVRIILRITARNGRIKHIQVDPDRVRELEG” showed a protease stability score of 1.01.
With “DTRSVMKDILKKIQENLKTGDPQHAADLFDPNVSVRVGDKELRGREQVRKKMKEERDRVDHVDMRIHDMKVSNGRVVVHYTWTVTVNGRKETNRAQLHADNEGDKALVTEVNVK” the protease stability score was -0.106.
Work on “DTRTDLRVAEKAAKAFHTNDPEKFKKQADPNAKAQYGDKTVHGMEDIVTRLKKFKDRVDHLRLNDIKSTGEKVDLNIQINVNGKNVEAKIDFHVRNGRLKTMKVDPNAVDAYRS” yielded a protease stability score of -0.19.
For “DTRVARLVQEIMENVKKGSKEHLKQMVDPNVKIRVGDKTFHGREDFVTHLMDERKEARVDYHLKDVKDEGDKAFADVVQHVDKNGQPRNRHFIIDARAENGRLKEMRIENTK”, the protease stability score was -0.3.
Sequence “DTSDNKRAKELLDVLRTGDKEDFKNLVDENVRVVVGDKEVHGRDEIAEDISRKKKEMRYTFKVEDLQDHNGHVKVDMRQSSEHNGSPHHSDAKVTVNFENGKVHDVVLRDDG” has a protease stability score of -0.04.
Work on “DTTTEIQRLVHDFVRKIKTGDPKEFERLVDEDARVRVGDKTVSGREEAVSHMVETAQRADTMDVNITSVSIHNGHAKVEFHLKYDHNGKDVEQTIIFVMVKRNGHFRLKEMVQK” yielded a protease stability score of 1.26.
With “EDDAITRWEELERQQETGNEEKAQEMVDPNVKMRYGDDNFHGREEYRKLVHKIRKNWREDVKDVRFEDHGEEIKVEYRVHQDINGKPVNADVTAEAQMSNGRLKKFVLRFSETQEKEIES” the protease stability score was 0.351.
In the case of “EDDRQRKFAKHANKVMETGDPREMEKLADENVRVVVGEKDVHGRERAQEWAKELSDRVDQIRIKDVDVDGNKVVIDLIVDHNGRQSTVTVDIEFHNGRAKSVTMHEK”, the protease stability score was -0.244.
“EDDVKRKQETWLKAVEDNNPEEAEEQADKHVQVVIGDKRIRGMEEMAHFIEHERRQADIRIQDYRISARGDKVRANISMHFNVNGTPEQASIKIQVTLSNGKIRKMVFRFDDQEFRRIQS” gave a protease stability score of 1.1.
“EDEEAEEAIRIWQRNDPDQLNRMVDKDVSIHYGDKSYHGRHEVKKIWENYVKQVDRISFRHITRTGEHVSFEVEAVVNGKHVEFTASMEMKNGRAKDITFKATNEEDDKELQKNLE” showed a protease stability score of 0.28.
Sequence “EDEEAEKLSEIQRTGDEERIARNADPNVRVNVGDKRVHGREHLVSIAKRLSKNVDSLEIKHVEIQGERMVVRFVMQVNGKHIHAEMEIQMSNGRITSRNQRYTSEDVEQNWRDAVD” has a protease stability score of 0.255.
“EDEELRKMVKQWEKGDPDQLLRYADEDAEFKVGDQQFHGREQLKHYIKRLKHRVDHFQIRKVTREGDRVRIDAFQVVNGRKIVYVFVLEVKNGRLKRLTMDFRDEKDERHFRTMLK” showed a protease stability score of 0.902.
Sequence “EDELLHILKEFIQAVNSGDSDKLRELMDPNVKAEYGDKEIHGREEIARQWRQIRHEIKFSWKHLHFEVKGDKLRVDFTVVMDVNGKPKHYRAVLYMKLKNGRITTLHVKMPEEEAKELNK” has a protease stability score of 0.363.
Sequence “EDELRDQFKRFMNAWERGDPDKLRSLVDPNAEVVVGDKVYHGMTHAADEIVRHMKESRYTIKIESINVNGDNIEVTARVTADHNGKPQDASFHASARLENGHVTSMEVQIRE” has a protease stability score of 0.916.
For “EDELRTMVDQVMEAQKTGDFDKFIEQFDPNAHRRVGDKEVEGQEEMRHEQKRRDDNIRVDYNRMSVQVSNGVAKLTVHLNAHVNGKPVRLTIDIVFHARNGRFQSMQVDFTREQEKRKRS”, the protease stability score was -0.213.
With “EDEMRKLAHKVMTAHQTGDPDRIARLMDPNVQVKVGDKTIHGKHQLKRKLTKDLKEMRVHIKSVKFSVQGDKVEVRANLVSRHNGQPHESTVDVRITARGDKLKHLNNQETQ” the protease stability score was -0.263.
For “EDENMETMKDLLRAWQEGDEDRAQENADKDVTVEYGDRSFHGRSQLHRLVKERREKMRVQIKDVRFDISGDKIKIDLTYTKDHNGRPETRRVRIIARVNNGKVKFVRLDEHG”, the protease stability score was 0.652.
Work on “EDENRKRIEHFLEVKEHGNPDEAKRLADPNVHLKVGDQTVHGRSQLSKILEKEVKEIRFSMQIDSYDDRPGRIKMSATMVLNINGQPIKVTFDAEYVLDNGRISHVEIRMDPTRLHEIKK” yielded a protease stability score of 0.64.
With “EDENRSNIEDMIRAWNQNNPDEWRELADPNVKVQIGEKSIRGREEIAKDLKQMHKEIEVHFNLKRVRVQGDKAEVEMEFSNNHNGKPRSDNVVYDVLVDNGRIKSVKQNQVS” the protease stability score was -0.141.
In the case of “EDENTRKFVQYLKILKDGNEQELKKDMDPNAHIKVGDKTLSGMDKITDDVRRKLEEMTVDFTTVSAKAENGRLDVNMSLNNEVNGRPRSDDVTIEVRIHNGKFDHIIYHMDPNRLKEVER”, the protease stability score was -0.104.
Work on “EDEVLKELLEAVRHNDPDKIKELIDPNARFRVGDKSLHGMEEAAEQYARMMKRVDHIQIDSMSAHGDTFTVDQRFHFDGRTLSVTIRIRIHNGRIEELVIEVRSEEDKKNLDNLLS” yielded a protease stability score of -0.097.
In the case of “EDEVNKILEDVATAIRTGDPDRVVENLDPNAKVQVGDKTLDGQKEVREFFERNQREASVRLHVTSVHVNGDKVKMKANYQQNRNGNPDFKDVDVTAHAHNGKLKVMEHRRDG”, the protease stability score was -0.451.
In the case of “EDEVRQRAEEFLKAWERGDPETLMRMADPNARFKIGDKEVHGREDYHREHKRQRDQMRYRLHSYEVSASGDKVHVDVSYNMNNNGQPNNSRQTFSARVDNGKIKELNVQSTG”, the protease stability score was -0.061.
Sequence “EDHTLREFQKNWQHNNPDELEKMMDPNVKIVIGDKKYHGKEEAKRINKQIVDQADHIDIRRVEVSGNKLEIRMVLNVNGNTRELVVIFKLHNGRIKHVEFKFTDERQKNFQEEMLQ” has a protease stability score of 1.08.
Work on “EDKAKTLLQQYMEAVHQGDPKQVEEMLDPNAQVVIGDKSVRGQNQIQQMVRKLHQHARIDIHVKDLKADGNNVHLTFSQKVEVNGRPERDEATATMVVDNGRAQYLQIEMDETFQRQLEK” yielded a protease stability score of -0.341.
For “EDNRLQEIMEKFIRLMQTGDDHTAANLFDEDARIEYGDHSIRGREEFQKYAKELKDRVDHFDVQTIKNRGDEVHIDVNIHVDGKRVRVNMVVQAENGKVKKLRLDPEVVRHMEK”, the protease stability score was 1.3.
In the case of “EDQVIRMVKELWKALRKNNPEKFKDLADKNARFEYGDKHVRGRENMQERMEQQVRDQEVDMRVERVEDRGDHVDVKFEKVVNHNGTPSSHSMTAVYVAENGRLKNVRVKETK”, the protease stability score was -0.103.
“EDRAQENLHELLKAIQQGDEDSVESLLDKDVKIQVGDKYIHGRENYAEHVRKTRQEIRVNYRIESYSVHNGRAKMTFRANRDDNGKPETWKAQATMEVDNGRITFIHRNKRG” gave a protease stability score of -0.045.
With “EDRDKVRRAIKRMLDVMSTGDEDKLREYADENVKINVGDKDVHGREEAARFLKTHADQYDHIDQRIQDVKKENGQVEVRREMEATHNGHTHRDREHIVVEIRGDNMKIKSIQRQ” the protease stability score was -0.409.
Work on “EDRDQAKHIIKEIMRAIQTGDRKHAMRQVDPNVRIHVGDKVLEGREEFMKWVKDLRDDVDHFHLRIHDMHVENGQLTADAEFVVDHNGQRRKQRMDVVFLVHGDKVRLLRLQEK” yielded a protease stability score of 1.4.
